The experiment deals with D-allulose 3-epimerase from Flavonifractor plautii (Flavonifractor plautii ATCC 29863). Nature of the experiment: SEC; gel filtration on Sephacryl S-300 HR 16/60; purified enzyme eluted with 50 mM Tris-HCl pH 7.5, 150 mM NaCl, 1 mL/min; calibrated with ferritin, catalase, aldolase and conalbumin.

As for “D-allulose 3-epimerase from Flavonifractor plautii (enzyme)”, the stoichiometry N (usually a count of units in the complex or per binding partner) was 4.

These data come from article PMC4965175.
